From the supplement of paper PMC6757056
± gives the standard deviation of the averaged measurements.

B1: library; a variant is named by its letters at N, in order (parent)
chain: GCUGUCACCGAGAAACUGUGAAGUAUAUCUUAAACCUGGGCACUUAAAAGAUAUAUGGAGUUAGUAGUGCAACCUGCUCGGUCUGAUGAGUCCNNNNNNGGACGAAACAGC

Assays:
cyclic di-GMP [1] = variants of: B1; test: FACS-Seq fitted mean relative fluorescence mCherry/BFP without ligand (log10 relative fluorescence); HEK293T; ligand: cyclic di-GMP (c-di-GMP-II aptamer); higher = higher reporter protein expression; conditions: ligand present: no
In short: (§1)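 An mCherry reporter containing the ribozyme switch and an EF1α-BFP marker were introduced by lentivirus into HEK293T libraries. Cells were enriched, incubated 48 h with or without ligand, sorted into 6 bins by mCherry/BFP, and bin genomic DNA was PCR-amplified, barcoded and sequenced on MiSeq. Fluorescence represents the normalized fitted normal mean of the bin counts. Fitting was done on log10(mCherry/BFP), scaling to five spiked-in control ribozymes.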

cyclic di-GMP [2] = variants of: B1; test: normalized RNA/DNA level without ligand (relative to sTRSVctl = 100) (log10 (% of sTRSVctl)); HEK293T; ligand: cyclic di-GMP (c-di-GMP-II aptamer); higher = less ribozyme self-cleavage, higher mRNA level; conditions: reporter: mCherry (pCS4076), ligand present: no
Method: (§2)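 Hammerhead (sTRSV) ribozyme switch libraries with a ligand aptamer grafted on stem I and a randomized N4-6 loop II, cloned into the 3' UTR of mCherry and transiently transfected into HEK293T cells; RNA-Seq 72 h post transfection with ligand added 1 h before transfection; RNA read count / plasmid DNA read count normalized to the non-cleaving sTRSVctl (x100), log10; sequences with >100 DNA reads. FACS-Seq: lentiviral library sorted into 6 bins after 48 h ligand, log-normal fit mean of mCherry/BFP scaled to controls. Printed sequences are partial switch sequences.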

cyclic di-GMP [3] = variants of: B1; test: FACS-Seq fitted mean relative fluorescence mCherry/BFP with ligand (log10 relative fluorescence); HEK293T; ligand: cyclic di-GMP (c-di-GMP-II aptamer); ligand concentration (+) FACS-Seq: 1 mM; higher = higher reporter protein expression; conditions: ligand present: yes
In short: as §1

cyclic di-GMP [4] = variants of: B1; test: normalized RNA/DNA level with ligand (relative to sTRSVctl = 100) (log10 (% of sTRSVctl)); HEK293T; ligand: cyclic di-GMP (c-di-GMP-II aptamer); ligand concentration (+) RNA-Seq: 1 mM; higher = less ribozyme self-cleavage, higher mRNA level; conditions: reporter: mCherry (pCS4076), ligand present: yes
Method: as §2

Variant	FACS-Seq fitted mean (log10) (cyclic di-GMP [1])	normalized RNA/DNA level without ligand (log10) (cyclic di-GMP [2])	FACS-Seq fitted mean (log10) (cyclic di-GMP [3])	normalized RNA/DNA level with ligand (log10) (cyclic di-GMP [4])
CUCUAA	-0.433 ± 0.11	1.4 ± 0.083	-0.0646 ± 0.21	1.61 ± 0.033
GGCGAG	-0.757 ± 0.036	1.5556 ± 0.00075	-0.498 ± 0.0053	1.68 ± 0.14
CCGGUU	-0.109 ± 0.11	1.592 ± 0.0094	0.264 ± 0.0069	1.78 ± 0.096
CGUGAU	-0.47 ± 0.026	1.45 ± 0.057	-0.173 ± 0.018	1.69 ± 0.07
CUAAAA	-0.3961 ± 0.0027	1.35 ± 0.057	-0.114 ± 0.1	1.61 ± 0.075
GCACUA	-0.172 ± 0.017	1.48 ± 0.023	0.225 ± 0.12	1.75 ± 0.062
AGUAAG	-0.172 ± 0.14	1.53 ± 0.11	0.221 ± 0.032	1.7 ± 0.062
GUGGUC	-0.682 ± 0.026	1.25 ± 0.077	-0.386 ± 0.015	1.46 ± 0.099
GAAUAA	-0.287 ± 0.05	1.44 ± 0.067	-0.0182 ± 0.045	1.68 ± 0.15
ACCAAG	-0.4336 ± 0.0033	1.54 ± 0.1	-0.172 ± 0.048	1.71 ± 0.09
CACAAA	-0.504 ± 0.031	1.24 ± 0.14	-0.278 ± 0.055	1.46 ± 0.12
CUAGAC	-0.239 ± 0.047	1.67 ± 0.053	-0.0103 ± 0.011	1.81 ± 0.093
GCGCGA	-0.455 ± 0.074	1.51 ± 0.12	-0.199 ± 0.081	1.65 ± 0.037
CGCUGA	-0.177 ± 0.072	1.53 ± 0.057	0.0499 ± 0.0086	1.72 ± 0.067
AGCCUU	0.0156 ± 0.081	1.712 ± 0.003	0.33 ± 0.038	1.85 ± 0.084
AAGUUA	-0.499 ± 0.08	1.529 ± 0.0062	-0.215 ± 0.06	1.74 ± 0.14
GUCUUG	-0.245 ± 0.061	1.61 ± 0.052	0.124 ± 0.019	1.77 ± 0.12
CACCCU	-0.383 ± 0.019	1.65 ± 0.082	-0.109 ± 0.033	1.75 ± 0.038

Variant	FACS-Seq fitted mean (log10) (cyclic di-GMP [1])	normalized RNA/DNA level without ligand (log10) (cyclic di-GMP [2])	FACS-Seq fitted mean (log10) (cyclic di-GMP [3])	normalized RNA/DNA level with ligand (log10) (cyclic di-GMP [4])
UAACGC	-0.0408 ± 0.21	1.66 ± 0.04	0.122 ± 0.082	1.79 ± 0.17
GCUGUU	-0.596 ± 0.057	1.63 ± 0.059	-0.418 ± 0.084	1.79 ± 0.082
CACGAA	-0.353 ± 0.036	1.33 ± 0.14	-0.00961 ± 0.027	1.53 ± 0.094
UUGUAG	-0.163 ± 0.065	1.6682 ± 0.00036	0.112 ± 0.032	1.83 ± 0.14
AAACUA	-0.338 ± 0.065	1.49 ± 0.031	-0.0568 ± 0.0064	1.65 ± 0.11
CCAAAU	-0.277 ± 0.053	1.52 ± 0.099	-0.0208 ± 0.13	1.71 ± 0.074
CACACA	-0.628 ± 0.032	1.45 ± 0.11	-0.354 ± 0.056	1.64 ± 0.089
GGAGGC	0.132 ± 0.076	1.6 ± 0.065	0.234 ± 0.067	1.79 ± 0.072
UCGAGU	-0.395 ± 0.033	1.47 ± 0.066	-0.0571 ± 0.032	1.73 ± 0.11
UUAUCC	-0.109 ± 0.15	1.76 ± 0.023	0.218 ± 0.082	1.86 ± 0.084
CGACUA	-0.6395 ± 0.004	1.35 ± 0.17	-0.239 ± 0.0063	1.48 ± 0.053
CCUCCU	-0.211 ± 0.0029	1.678 ± 0.011	0.278 ± 0.026	1.77 ± 0.098
AAUGAU	-0.104 ± 0.17	1.581 ± 0.0096	0.206 ± 0.048	1.76 ± 0.034
GCGGUU	-0.562 ± 0.021	1.6 ± 0.044	-0.254 ± 0.0055	1.75 ± 0.11
CGGGUC	-0.589 ± 0.12	1.81 ± 0.032	-0.527 ± 0.034	1.9 ± 0.057
AGAAGA	-0.764 ± 0.056	1.36 ± 0.023	-0.515 ± 0.035	1.57 ± 0.14
UACGAA	-0.516 ± 0.06	1.61 ± 0.03	-0.204 ± 0.067	1.76 ± 0.1
GCGAAU	-0.502 ± 0.029	1.45 ± 0.057	-0.149 ± 0.079	1.64 ± 0.14
